Assay results reported in patent US11091512B2, “Modulation of antigen immunogenicity by deleting epitopes recognized by NKT cells” (Imnate Sarl, priority 2010, dated 2021).

Tested on: CD4+ T cells and NKT cells
Assay: peripheral blood CD4+ T cells cultured with human dendritic cells loaded with natural or mutated antibody
Type: cell-based
Conditions: 5 to 7 days culture
Source text: Monoclonal human antibodies of the IgG4 isotype were derived from the peripheral blood B lymphocytes by transformation with the Epstein-Barr virus. The genomic sequence of such antibodies was obtained from transformed B cells. A viral vector containing the corresponding cDNA sequence was constructed and used for transfection of CHO cells. All these methods are known in the art (see for instance, Jacquemin et al Blood 92: 496-506, 1998).
The hydrophobic aminoacid residues located in position 1 in the peptides of SEQ ID18 and SEQ ID20 were mutated to a serine and the mutated antibody produced by transfected CHO cells.
Peripheral blood CD4+ T cells obtained as above were exposed in culture medium to human dendritic cells (derived from human peripheral blood monocytes by methods known in the art) and loaded with either the antibody in natural configuration (SEQ ID21) or its mutated counterpart (SEQ ID22). After culturing the cells with CD4+ T cells for 5 to 7 days, the population of CD4+ T cells activated by either natural or mutated antibody was evaluated. CD4+ NKT cells were separated from CD4+ T cells using an antibody to NKG2D, a surface marker associated with NK or NKT cells only.

B1: SEQ ID22: mutated counterpart of the IgG4 antibody, position 1 residues of SEQ ID18 and SEQ ID20 motifs mutated to serine (protein, listed as Homo sapiens)
chain: ASTKGPSVFPLAPCSRSTSESTAALGCLVKDYFPEPVTVSWNSGALTSGVHTFPAVLQSSGLYSLSSVVTVPSSSLGTKTYTCNVDHKPSNTKVDKRVESKYGPPCPSCPAPEFLGGPSVFLFPPKPKDTLMISRTPEVTCVVVDVSQEDPEVQFNWYVDGVEVHNAKTKPREEQFNSTSRVVSVLTVLHQDWLNGKEYKCKVSNKGLPSSIEKTISKAKGQPREPQVYTLPPSQEEMTKNQVSLTCLVKGFYPSDIAVEWESNGQPENNYKTTPPVLDSDGSFFLYSRLTVDKSRWQEGNVFSCSVMSEALHNHYTQKSLSLSLGK
- activation of class II restricted CD4+ T cells: only activate class II restricted CD4+ T cells
- activation of NKT cells (NKT cells separated with antibody to NKG2D): not NKT cells
